# Assays:
# FcγRIIIa = FcγRIIIa (UniProt P08637); test: cell-based or functional assay
# [1] = target: human FcγRIIa-H variant (Histidine at amino acid 131) (human) (UniProt P12318); test: cell-based or functional assay
# Chain of human FcγRIIa-H variant (Histidine at amino acid 131) (human) (P12318 34-317, change not shown): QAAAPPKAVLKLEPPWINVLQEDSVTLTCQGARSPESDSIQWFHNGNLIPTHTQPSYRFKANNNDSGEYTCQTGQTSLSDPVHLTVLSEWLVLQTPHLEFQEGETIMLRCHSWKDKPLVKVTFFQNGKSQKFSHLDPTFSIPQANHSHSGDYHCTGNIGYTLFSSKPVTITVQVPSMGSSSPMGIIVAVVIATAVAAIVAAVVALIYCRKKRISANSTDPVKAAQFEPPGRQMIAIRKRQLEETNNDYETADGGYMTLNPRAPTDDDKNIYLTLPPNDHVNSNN
# Chain of FcγRIIIa (P08637 17-254 F176V limits assumed): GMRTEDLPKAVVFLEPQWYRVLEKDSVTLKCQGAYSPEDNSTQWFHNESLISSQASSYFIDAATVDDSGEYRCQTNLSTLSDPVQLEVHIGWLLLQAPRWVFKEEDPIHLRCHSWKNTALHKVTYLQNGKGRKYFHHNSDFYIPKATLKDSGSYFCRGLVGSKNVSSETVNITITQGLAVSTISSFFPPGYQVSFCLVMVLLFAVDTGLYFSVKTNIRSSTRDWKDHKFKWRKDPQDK
"EC50 (nM) Mean, FcγRIIIa signaling in ADCC reporter assay (Raji target cells, Jurkat/FcγRIIIa effector cells, luciferase) (FcγRIIIa) [nM]","EC50 (nM) Mean, FcγRIIa signaling in ADCP reporter assay (Raji target cells, Jurkat/FcγRIIa-H effector cells, luciferase) [1] [nM]","EC50 (nM) Mean, FcγRIIIa signaling in ADCC reporter assay (HEK-PD-L1 target cells, Jurkat/FcγRIIIa effector cells, luciferase) (FcγRIIIa) [nM]",Substance
0.08,7.1,,"obinutuzumab monoclonal antibody, fucosylated"
,,0.049,"avelumab (Bavencio) monoclonal antibody, fucosylated"

# Source: patent publication US20220267460A1
